For 8 molecules, EC50 results are on record in patent publication US20180057581A1.

The labels stand for the following.
B1: HeRX1-10G1, IgG1 (antibody, V domains shown)
VH: QVQLQESGPGLVKPSQTLSLTCTVSDYSITSDYAWNWIRQFPGKGLEWMGYISYSGSTSYNPSLKSRITISRDTSKNQFSLQLNSVTAADTAVYYCASFDYAHAMDYWGQGTTVTVSS
VL: DIVLTQSPAFLSVTPGEKVTFTCQASQSIGTSIHWYQQKTDQAPKLLIKYASESISGIPSRFSGSGSGTDFTLTISSVEAEDAADYYCQQINSWPTTFGGGTKLEIKR
B2: HeRX1-10G1, IgG1_D265A (antibody, V domains shown)
VH: QVQLQESGPGLVKPSQTLSLTCTVSDYSITSDYAWNWIRQFPGKGLEWMGYISYSGSTSYNPSLKSRITISRDTSKNQFSLQLNSVTAADTAVYYCASFDYAHAMDYWGQGTTVTVSS
VL: DIVLTQSPAFLSVTPGEKVTFTCQASQSIGTSIHWYQQKTDQAPKLLIKYASESISGIPSRFSGSGSGTDFTLTISSVEAEDAADYYCQQINSWPTTFGGGTKLEIKR
B3: Romaine, IgG1_D265A (antibody, V domains shown)
VH: EVQLVESGGGLVKPGGSLRLSCAASGFTFSIYAMSWVRQAPGKGLEWVGRIKSNADGGTTEYAAPVKGRFTISRDDSKNTLYLQMNSLKTEDTAVYYCARMRYYSDLYFDPWGQGTLVTVSS
VL: DIELTQPPSVSVSPGQTASITCSGDAIGSKYVHWYQQKPGQAPVLVISKDNKRPSGIPERFSGSNSGNTATLTISGTQAEDEADYYCQTATVSSYWWVFGGGTKLTVLG
B4: Satine, IgG1_D265A (antibody, V domains shown)
VH: EVQLVESGGGLVKPGGSLRLSCAASGFTFSIYAMSWVRQAPGKGLEWVGRIKSNADGGTTEYAAPVKGRFTISRDDSKNTLYLQMNSLKTEDTAVYYCARMRYYSDLYFDPWGQGTLVTVSS
VL: SYELTQPPSVSVSPGQTASITCSGDKLGQKYVSWYQQKPGQSPVLVISQDRKRPSGIPERFSGSNSGNTATLTISGTQAEDEADYYCQTWTHLQWVFGGGTKLTVLG
B5: Laurine, IgG1_D265A (antibody, V domains shown)
VH: QVQLQQSGPGLVKPSQTLSLTCAISGDSVSSNSAAWNWIRQSPSRGLEWLGRTYYRSKWKKEYAQSVKSRITINPDTSKNQFSLQLNSVTPEDTAVYYCARDRYYYSAFDYWGQGTLVTVSS
VL: DIALTQPASVSGSPGQSITISCTGTSSDVGGYNSVSWYQQHPGKAPKLMIYAVSNRPSGVSNRFSGSKSGNTASLTISGLQAEDEADYYCASYDERFTRVFGGGTKLTVLG
B6: Madeleine, IgG1_D265A (antibody, V domains shown)
VH: QVQLQQSGPGLVKPSQTLSLTCAISGDSVSSNSAAWNWIRQSPSRGLEWLGRTYYRSKWKKEYAQSVKSRITINPDTSKNQFSLQLNSVTPEDTAVYYCARDRYYYSAFDYWGQGTLVTVSS
VL: QSALTQPASVSGSPGQSITISCTGTSSDVGGYNSVSWYQQHPGKAPKLMIYAVSNRPSGVSNRFSGSKSGNTASLTISGLQAEDEADYYCASYDERFTRVFGGGTKLTVLG
B7: Maelle, IgG1_D265A (antibody, V domains shown)
VH: QVQLQQSGPGLVKPSQTLSLTCAISGESVSTSSAAWNWIRQSPSRGLEWLGRTYYRSKWKKEYAQSVKSRITINPDTSKNQFSLQLNSVTPEDTAVYYCARDRYYYSAFDYWGQGTLVTVSS
VL: QSALTQPASVSGSPGQSITISCTGTSSDVGGYNSVSWYQQHPGKAPKLIIYAVSNRPSGVSNRFSGSKSGNTASLTISGLQAEDEADYYCASYDERFTRVFGGGTKLTVLG
B8: Meriem, IgG1_D265A (antibody, V domains shown)
VH: QVQLQQSGPGLVKPSQTLSLTCAISGDSVSTSSAAWNWIRQSPSRGLEWLGRTYYRSKWKKEYAQSVKSRITINPDTSKNQFSLQLNSVTPEDTAVYYCARDRYYYSAFDYWGQGTLVTVSS
VL: QSALTQPASVSGSPGQSITISCTGTSSDVGGYNSVSWYQQHPGKAPKLIIYAVSNRPSGVSNRFSGSKSGNTASLTISGLQAEDEADYYCASYDERFTRVFGGGTKLTVLG

The target in the experiment is M-CSF endogenously expressed on MDA-MB-231 cells (human) (UniProt P09603). The experiment can be described thus: FACS, MDA-MB-231 cells endogenously expressing M-CSF (n = 2).
As a reminder, the EC50 is the midpoint of the concentration-response curve. High values mean weaker potency, low ones greater potency. Consider B1, for which the EC50 came out at 27 nM.

Molecule B2 showed an EC50 of 23 nM.

For B3, the EC50 turned out to be 19 nM.

Molecule B4 yielded an EC50 of 26 nM.

In turn, B5 gave an EC50 of 9 nM. Against the preceding molecule, the EC50 is about 2.9-fold lower.

Turning to B6, the EC50 was determined as 10 nM.

Molecule B7 gave an EC50 of 8 nM.

In turn, B8 had an EC50 of 10 nM. The EC50 values of the last two molecules are within 1.5-fold of each other.
